Molecular target: Total cellular Ras (all isoforms KRas, HRas and NRas, endogenous, in human cell lines)
Experiment: cell-based or functional assay

Work on “RRSP-DTB (RRSP fused via a (G4S)2 linker to diphtheria toxin residues 186-535, DTT-DTR) (from UniProt P00588 186-535) (enzyme)” yielded an IC50 of cell viability after 72 hours, HCT-116 cells of 1.5 pM, an IC50 of cell viability at 72 h, MDA-MB-436 cells of 5 pM and an IC50 of cell viability, MDA-MB-231 cells, 72 hours of 12 pM. It also gave an IC50 of viability of HCT-116 spheroids after 7 days of 85 pM and a concentration giving complete cleavage of RAS after 1 h, western blot, MDA-MB-436 cells of 10 nM.

“RRSP*-DTB (catalytically inactive RRSP H4030A fused to DTB) (from UniProt P00588 186-535) (enzyme)” was tested, and the dose needed for depletion of RAS in HCT-116 spheroids relative to RRSP-DTB was 10 fold.

Substance “RRSP-CPD-DTa-DTB (RRSP fused to the MARTX cysteine protease domain and detoxified diphtheria toxin) (from UniProt P00588 33-567) (enzyme)” has a concentration giving partial RAS inactivation, western blot, HCT-116 cells of 100 pM.

Source: patent US20230045284A1
